In PMC4646227, “Plasticity in PYD assembly revealed by cryo-EM structure of the PYD filament of AIM2” (Cell Discovery, 2015):

Tests used:
[1] = target: ASC PYD (M1-Q105, S106C), fluorophore-labelled, MBP removed by TEV (UniProt Q9ULZ3); test: fluorescence polarisation; apparent; Alexa Fluor 488-labelled MBP-ASC PYD, same procedure, mCherry-NLRP6 PYD added as nucleator
[2] = target: T1, ASC PYD (M1-Q105, S106C), fluorophore-labelled, MBP removed by TEV (UniProt Q9ULZ3 1-106, S106C, Alexa Fluor 568 on the engineered C-terminal Cys (maleimide); Alexa Fluor 488 instead in the experiment with mCherry-NLRP6^PYD); test: fluorescence polarisation; apparent; Alexa568-labelled MBP-ASC PYD, polymerisation started by TEV removal of MBP; initial rates of ASC PYD filament formation plotted against concentrations of added GFP-AIM2 PYD seeds; details: both partners purified
T1 construct: Apoptosis-associated speck-like protein containing a CARD (ASC), Pyrin domain, M1-Q105 followed by an engineered Cys (S106C); also called labeled MBP-ASC^PYD (before cleavage); source: E. coli BL21(DE3), purified (Ni-NTA, SEC) as monomeric MBP fusion, labelled, MBP removed by TEV in the assay

[3] = target: the molecule itself; test: cryo-EM structure; helical reconstruction of His-GFP-AIM2 PYD filaments; sample in 20 mM HEPES pH 8.0, 150 mM NaCl, 2 mM dithiothreitol

ASC PYD (M1-Q105, S106C), fluorophore-labelled, MBP removed by TEV (UniProt Q9ULZ3), sequence (Q9ULZ3 1-106 S106C): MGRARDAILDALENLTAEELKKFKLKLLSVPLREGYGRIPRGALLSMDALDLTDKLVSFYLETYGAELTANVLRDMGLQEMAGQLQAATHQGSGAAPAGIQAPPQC
T1 sequence (Q9ULZ3 1-106 S106C): as above

Kd [1] [nM] | Kd [2] [nM] | Molecule | binding result [3]
90 |  | mCherry-tagged NLRP6 PYD (domain or fragment) | 
 | ~210 | His-GFP-tagged AIM2 PYD (M1-P100) (domain or fragment, human, UniProt O14862 1-100, looked up, Absent in melanoma 2 (AIM2), human, Pyrin domain, residues M1-P100; Non-cleavable His-GFP tag from a pET28a backbone; A two-residue linker from the BamHI site joins GFP and AIM2 PYD; The protein forms filaments; also called GFP-AIM2^PYD; His-GFP-AIM2^PYD; source: E. coli BL21(DE3), purified (Ni-NTA, SEC; void fractions); not shown: His, N-terminal, kept; GFP (monomeric, M1-T230, A206K), …) MESKYKEILLLTGLDNITDEELDRFKFFLSDEFNIATGKLHTANRIQVATLMIQNAGAVSAVMKTIRIFQKLNYMLLAKRLQEEKEKVDKQYKSVTKPKP | binds
